Test results from patent publication US20110262922, “APTAMER SANDWICH ASSAYS” (POSCO, published 2011).

Experiments:
[1] = molecular target: T1, ERBB2 (HER2) (UniProt P04626 P04626:23-652); test: filter; +/-0.20; same buffer, 37 C; not competing with ERBB2-12; details: tags: His-tagged; R&D Systems Cat# 1129-ER; label: 5'-32P
[2] = molecular target: T2, Insulin receptor (IR) (Homo sapiens, UniProt P06213-2;P06213-2 P06213-2:28-746,P06213-2:751-944); test: filter; +/-0.28; same buffer, 5 mM MgCl2, 37 C; details: tags: His-tagged; R&D Systems Cat# 1544-IR; chain copies: 2; label: 5'-32P
T2 sequence (P06213 other isoform, or with tags, fused parts or gaps, chain 1 of 2): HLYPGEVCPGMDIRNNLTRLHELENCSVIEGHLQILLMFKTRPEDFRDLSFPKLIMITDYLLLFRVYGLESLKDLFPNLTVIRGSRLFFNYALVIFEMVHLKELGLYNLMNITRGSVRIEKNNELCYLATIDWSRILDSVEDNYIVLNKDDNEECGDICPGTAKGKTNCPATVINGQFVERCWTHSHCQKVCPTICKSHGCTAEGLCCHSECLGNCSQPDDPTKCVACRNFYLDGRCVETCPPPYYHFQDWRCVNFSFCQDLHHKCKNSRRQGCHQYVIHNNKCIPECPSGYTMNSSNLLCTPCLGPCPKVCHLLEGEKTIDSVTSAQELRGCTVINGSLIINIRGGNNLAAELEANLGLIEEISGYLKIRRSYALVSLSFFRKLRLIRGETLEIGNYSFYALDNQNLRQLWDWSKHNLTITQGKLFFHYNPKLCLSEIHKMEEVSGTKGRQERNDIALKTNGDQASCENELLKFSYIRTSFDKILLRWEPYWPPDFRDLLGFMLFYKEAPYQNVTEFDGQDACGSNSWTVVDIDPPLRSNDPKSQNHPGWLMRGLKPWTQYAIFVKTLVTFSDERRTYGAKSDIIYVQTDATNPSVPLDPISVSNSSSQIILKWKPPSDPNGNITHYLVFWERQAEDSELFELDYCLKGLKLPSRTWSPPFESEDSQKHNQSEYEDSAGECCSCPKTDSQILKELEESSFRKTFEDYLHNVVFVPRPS
T2 sequence (P06213 763-956, chain 2 of 2): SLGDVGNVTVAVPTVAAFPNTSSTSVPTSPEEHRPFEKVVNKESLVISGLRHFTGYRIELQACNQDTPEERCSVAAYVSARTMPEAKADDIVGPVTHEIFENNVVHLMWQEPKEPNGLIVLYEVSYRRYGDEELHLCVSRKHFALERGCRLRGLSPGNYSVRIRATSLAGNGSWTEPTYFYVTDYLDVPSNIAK
Experimental: (§1) Aptamers identified using the above SELEX process were amplified by PCR and cloned as described above. Up to fifty randomly picked plasmid clones were sequenced. To verify that cloned aptamers bind to IR or ERBB2, aptamers that had same sequence in the aptamer pool were tested for binding affinity. Briefly, aptamers were incubated with various concentrations of target His-tagged proteins and the target His-tagged proteins were captured on Talon bead. Radio labeled aptamers that were bound to target proteins were then detected by phosphoimager.
(§2) Specifically, Aptamer-protein equilibrium dissociation constants (Kd's) were determined by the nitrocellulose-filter binding method as described by White et al. in Mol. Ther., 2001, 4(6), 567-73. For all binding assays, aptamers were dephosphorylated using alkaline phosphatase (New England Biolab) and labeled at the 5′-end using T4 polynucleotide kinase (New England Biolabs, Beverly, Mass.) and [γ³²P]ATP (Amersham Pharmacia Biotech, Piscataway, N.J.) as described by Fitzwater et al., in Methods Enzymol, 1996, 267, 275-301. […] The fraction of bound aptamer was quantified with a PhosphorImager (Fuji FLA-5100 Image Analyzer, Tokyo, Japan). […]

[3] = molecular target: T1, ERBB2 (HER2); test: filter; +/-0.39; same buffer, 37 C; details: tags: His-tagged; R&D Systems Cat# 1129-ER; label: 5'-32P
Experimental: as §1, §2

[4] = molecular target: T1, ERBB2 (HER2); test: filter; +/-1.25; same buffer, 37 C; details: tags: His-tagged; R&D Systems Cat# 1129-ER; label: 5'-32P
Experimental: as §1, §2

[5] = molecular target: T1, ERBB2 (HER2); test: filter; +/-0.12; 40 mM HEPES pH 7.5, 120 mM NaCl, 5 mM KCl, 5 mM MgCl2, 0.002% tween-20, 37 C; details: tags: His-tagged; R&D Systems Cat# 1129-ER; label: 5'-32P
Experimental: as §1, §2

[6] = molecular target: T2, Insulin receptor (IR); test: FP; placeholder; details: tags: His-tagged; R&D Systems Cat# 1544-IR; chain copies: 2; label: 5'-32P
[7] = molecular target: T2, Insulin receptor (IR); test: filter; +/-1.08; 40 mM HEPES pH 7.5, 120 mM NaCl, 5 mM KCl, 5 mM MgCl2, 0.002% tween-20, 37 C; not competing with IR-13; details: tags: His-tagged; R&D Systems Cat# 1544-IR; chain copies: 2; label: 5'-32P
[8] = molecular target: T2, Insulin receptor (IR); test: filter; +/-0.26; same buffer, 5 mM MgCl2, 37 C; details: tags: His-tagged; R&D Systems Cat# 1544-IR; chain copies: 2; label: 5'-32P
Experimental: as §1, §2

[9] = molecular target: T2, Insulin receptor (IR); test: filter; +/-0.78; same buffer, 5 mM MgCl2, 37 C; details: tags: His-tagged; R&D Systems Cat# 1544-IR; chain copies: 2; label: 5'-32P
Experimental: as §1, §2

B1: ERBB2-1 (ssDNA)
DNA: GAGTGACCGTCTGCCTGATGTTAGAGTTTGCCTGAGTGCCTCGTAAGGGCGTAACAACAGCCACACCACCAGCC
Kd [1]: 3.05 nM

B2: IR-25 (ssDNA)
DNA: GAGTGACCGTCTGCCTGAGATCCGACTGTTTACTGTTTAACAGCCGGCTGATGGACCCAGCCACACCACCAGCC
Kd [2]: 13.3 nM

B3: ERBB2-10 (ssDNA)
DNA: GAGTGACCGTCTGCCTGGTTAGACTGAACGCACTGAGGGCCGCAGCCTATCTGAAGGCAGCCACACCACCAGCC
Kd [3]: 3.7 nM

B4: ERBB2-19 (ssDNA)
DNA: GAGTGACCGTCTGCCTGATTAGATGAAAGCGCATTCCAACAACAGATAATCTGAGGGCAGCCACACCACCAGCC
Kd [4]: 15.8 nM

B5: ERBB2-12 (ssDNA)
DNA: GAGTGACCGTCTGCCTGTCCTGGCATGTTCGATGGAGGCCTTTGATTACAGCCCAGACAGCCACACCACCAGCC
Kd [5]: 0.78 nM

B6: IR-6 (ssDNA)
DNA: GAGTGACCGTCTGCCTGTGGGTACAGTCTTTAGCTTACACAGGCTCCTGAAGACGCACAGCCACACCACCAGCC
Kd [6]: 4.6 nM
Kd [7]: 4.6 nM

B7: IR-11 (ssDNA)
DNA: GAGTGACCGTCTGCCTGTAAGGTTTAAGCTTGGCCTAATGGTGCTATCAGGCTCAGCAGCCACACCACCAGCC
Kd [8]: 5.48 nM

B8: IR-13 (ssDNA)
DNA: GAGTGACCGTCTGCCTGTTATCCACTATGGCTTCTCATTCAAATAAGTGCGATCGATCAGCCACACCACCAGCC
Kd [9]: 4.83 nM
